{
  "source": "paper PMC5114850",
  "about": "(Science (New York, N.Y.), 2016)",
  "biological_target": "recombinant human calmodulin (human, UniProt P0DP23 1-149)",
  "experiment": "ITC",
  "data": [
    {"binder": "Ac-EDLSSSYYRDYVKKILKKKK-NH2", "note": "[CaMBP0 peptide of zebrafish STRA6]", "values": [
      {"measurement": "Kd", "value": "2560 ± 722", "unit": "nM"},
      {"measurement": "dH", "value": "-7.8 ± 0.8", "unit": "kcal/mol"},
      {"measurement": "stoichiometry N", "value": "1.01 ± 0.07", "unit": "sites"}
    ]}
  ]
}
